This is an account of results in paper PMC11146434, “Mitigation of TDP-43 toxic phenotype by an RGNEF fragment in amyotrophic lateral sclerosis models” (Brain, 2023).

B1: His-MBP-RGNEF^1–275 (domain or fragment, human, UniProt Q8N1W1 1-275, looked up)
chain: MELSCSEAPLYGQMMIYAKFDKNVYLPEDAEFYFTYDGSHQRHVMIAERIEDNVLQSSVPGHGLQETVTVSVCLCSEGYSPVTMGSGSVTYVDNMACRLARLLVTQANRLTACSHQTLLTPFALTAGALPALDEELVLALTHLELPLEWTVLGSSSLEVSSHRESLLHLAMRWGLAKLSQFFLCLPGGVQALALPNEEGATPLDLALREGHSKLVEDVTNFQGRWSPSFSRVQLSEEASLHYIHSSETLTLTLNHTAEHLLEADIKLFRKYFWDR
notes: Detailed purification protocol is in the Supplementary Methods; also called His-NF242; NF242 (in the SPR experiments); source: E. coli, purified (Ni-IMAC); not shown: MBP, N-terminal, kept
B2: His-RRM-1 (domain or fragment, human, UniProt Q13148 101-191, looked up)
chain: QKTSDLIVLGLPWKTTEQDLKEYFSTFGEVLMVQVKKDLKTGHSKGFGFVRFTEYETQVKVMSQRHMIDGRWCDCKLPNSKQSQDEPLRSR
notes: source: E. coli, purified (Ni-IMAC)

For the series “His-MBP-RGNEF^1–275”, the target named is B1. The experiment in a line: SPR; His-MBP-RGNEF^1–275 amine-coupled on a carboxymethyl dextran chip; TDP-43 fragments as analytes; 1× PBS, 0.1% Tween-20; 22°C. On the technique in general: SPR reads the build-up and loss of mass on a sensor chip optically.
In series [1] the target is T1, His-TDP-43 1-269 (human, UniProt Q13148 1-269). In words: SPR; competition: 3′-biotinylated RNA oligo on a neutravidin chip; 100 nM His-TDP-43^1–269 pre-incubated 30 min at room temperature with 1 or 10 μM His-MBP-RGNEF^1–275, then injected; 10 mM Tris pH 8.0, 150 mM NaCl, 2 mM MgCl2, 0.05% Tween-20, 1 μM BSA.
Another series addresses T2, His-GST-TDP-43^wt (human, UniProt Q13148 1-414).
T2 construct: also called full-length wild-type TDP-43 with an N-terminal GST fusion; source: E. coli, purified (Ni-IMAC); not shown: GST, N-terminal, kept
The experiment in a line: SPR; His-MBP-RGNEF^1–275 amine-coupled on a carboxymethyl dextran chip (2000 to 8000 µRIU); His-GST-TDP-43^wt as analyte; 20 mM HEPES pH 7.5, 50 mM KCl, 0.5 mM MgCl2, 50 mM NaCl, 0.05% Tween-20; 22°C. The conditions noted are these: both partners purified.

For series [2], the target named is T1, His-TDP-43 1-269. In words: SPR; 100 nM TDP-43 1-269, no NF242; 10 mM Tris pH 8.0, 150 mM NaCl, 2 mM MgCl2, 0.05% Tween-20, 1 uM BSA; 30 min pre-incubation at room temperature; SPR at 22 C (stated for the protein-protein SPR); 80 RIU RNA immobilized. The note with it: protein: recombinant; tags: N-terminal 6xHis (pQE30); label: 3' biotin.
Target sequence in this assay (Q13148 1-269): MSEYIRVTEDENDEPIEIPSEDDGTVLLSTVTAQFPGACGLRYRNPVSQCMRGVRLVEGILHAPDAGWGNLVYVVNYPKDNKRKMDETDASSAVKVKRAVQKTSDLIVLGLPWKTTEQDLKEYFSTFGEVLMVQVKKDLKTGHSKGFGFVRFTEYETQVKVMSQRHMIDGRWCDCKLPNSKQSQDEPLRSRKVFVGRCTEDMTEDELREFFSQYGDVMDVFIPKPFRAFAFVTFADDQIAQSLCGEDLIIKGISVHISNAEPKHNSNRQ

T2 sequence (Q13148 whole entry, the tested form may be a part): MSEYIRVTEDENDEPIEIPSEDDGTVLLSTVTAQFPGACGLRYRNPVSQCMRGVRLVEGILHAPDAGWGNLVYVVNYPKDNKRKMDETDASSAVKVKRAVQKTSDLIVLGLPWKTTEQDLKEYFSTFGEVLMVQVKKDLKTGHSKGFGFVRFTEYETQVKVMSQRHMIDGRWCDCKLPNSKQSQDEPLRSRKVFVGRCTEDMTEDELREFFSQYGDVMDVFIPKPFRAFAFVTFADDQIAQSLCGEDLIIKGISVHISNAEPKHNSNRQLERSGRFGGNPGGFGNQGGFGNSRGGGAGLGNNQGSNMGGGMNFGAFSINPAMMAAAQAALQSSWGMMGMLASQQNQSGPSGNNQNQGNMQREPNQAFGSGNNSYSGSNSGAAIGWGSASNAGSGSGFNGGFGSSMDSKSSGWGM

The term Kd denotes the equilibrium constant for the complex coming apart. In turn, “His-TDP-43^1–269 (from UniProt Q13148 1-269) (domain or fragment)” showed a Kd with His-MBP-RGNEF^1–275 of 4110 nM.
Consider B1, for which, in the series with His-TDP-43 1-269 [1], the percent reduction of the signal of TDP-43 on the RNA chip at 1 μM NF242 amounted to 10% and the percent reduction of the signal of TDP-43 on the RNA chip at 10 μM NF242 amounted to 50%. Further, in the series with His-GST-TDP-43^wt, binding was characterised by a dissociation constant (Kd) of 1780 nM.
Turning to B2, the binding result with His-MBP-RGNEF^1–275 (both partners purified) is listed as “binds”.
As for GUGUGUGAAUGAAUAAA (ssRNA) [3'-biotinylated RNA oligo], in the series with His-TDP-43 1-269 [2], the binding result is recorded as “binds”.
